Patent US20240068024, “NUCLEIC ACID FRAGMENT AND USE THEREOF” (KYUSHU UNIVERSITY, NATIONAL UNIVERSITY CORPORATION, published 2024)

Experiments:
Tn5 transposase = Tn5 transposase (UniProt Q46731 Q46731:1-476); experiment: in situ transposition, 5 mM MgCl2, TAPS-DMF pH 8.5, 37 C; library band 200-400 bp; settings: chain copies: 2 (stated, dimer)
Method: PBS was removed, 100 μL of a Tn5 solution (150 ng/well in 1×Tn5 dialysis buffer) was added thereto, and the mixture was allowed to stand at room temperature for 1 hour. The composition of the 1×Tn5 dialysis buffer was formed of 50 mM HEPES-KOH (pH 7.2), 0.1 M NaCl, 0.1 mM EDTA, 1 mM DTT, 0.1% Triton X-100, and 10% glycerol. As a result, the transposase was bound to the transposase binding sequence of the double-stranded nucleic acid fragment of each ChIL probe.
Subsequently, the 1×Tn5 dialysis buffer was removed, […] of a 1×TAPS-DMF buffer (10 mM TAPS-NaOH (pH 8.5), 5 mM MgCl₂, 10% N,N-dimethylformamide) was added thereto, and the mixture was allowed to stand at 37° C. for 1 hour. With this, the transposase bound to the double-stranded nucleic acid fragment of the ChIL probe was activated, and the double-stranded nucleic acid fragment of the ChIL probe was inserted in the vicinity of the binding region of the lysine 27 acetylation modified histone H3 on the genomic DNA.

T7 RNA polymerase = T7 RNA polymerase (UniProt P00573 P00573:1-883); experiment: in situ transcription after Tn5 insertion in mouse liver section, library band 200-400 bp; 37 C overnight; no UV needed
Chain of T7 RNA polymerase (P00573 whole entry, one chain of several): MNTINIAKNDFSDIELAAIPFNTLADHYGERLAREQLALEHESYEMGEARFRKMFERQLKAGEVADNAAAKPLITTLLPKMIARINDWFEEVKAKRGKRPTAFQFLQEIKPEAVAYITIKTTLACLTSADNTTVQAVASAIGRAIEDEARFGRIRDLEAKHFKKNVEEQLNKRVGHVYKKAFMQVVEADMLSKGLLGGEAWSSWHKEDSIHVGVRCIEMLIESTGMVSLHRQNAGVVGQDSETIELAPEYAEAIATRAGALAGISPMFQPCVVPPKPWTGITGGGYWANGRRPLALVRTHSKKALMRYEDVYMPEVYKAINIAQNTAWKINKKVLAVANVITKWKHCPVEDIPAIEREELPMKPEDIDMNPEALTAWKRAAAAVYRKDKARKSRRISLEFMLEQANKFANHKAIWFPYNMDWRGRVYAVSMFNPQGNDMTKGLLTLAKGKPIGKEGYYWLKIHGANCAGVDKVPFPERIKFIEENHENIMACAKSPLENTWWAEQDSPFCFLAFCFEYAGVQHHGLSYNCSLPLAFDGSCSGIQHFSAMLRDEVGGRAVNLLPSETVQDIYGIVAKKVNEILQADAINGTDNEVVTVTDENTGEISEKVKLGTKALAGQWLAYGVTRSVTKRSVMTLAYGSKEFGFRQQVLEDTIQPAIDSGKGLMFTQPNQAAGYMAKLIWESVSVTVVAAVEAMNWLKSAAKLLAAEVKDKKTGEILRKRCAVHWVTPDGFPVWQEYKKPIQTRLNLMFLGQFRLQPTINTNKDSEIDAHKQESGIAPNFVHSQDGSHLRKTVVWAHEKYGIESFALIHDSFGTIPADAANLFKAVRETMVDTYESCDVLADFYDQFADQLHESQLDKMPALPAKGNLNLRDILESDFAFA

Chain of Tn5 transposase (Q46731 whole entry, the tested form may be a part, one chain of several): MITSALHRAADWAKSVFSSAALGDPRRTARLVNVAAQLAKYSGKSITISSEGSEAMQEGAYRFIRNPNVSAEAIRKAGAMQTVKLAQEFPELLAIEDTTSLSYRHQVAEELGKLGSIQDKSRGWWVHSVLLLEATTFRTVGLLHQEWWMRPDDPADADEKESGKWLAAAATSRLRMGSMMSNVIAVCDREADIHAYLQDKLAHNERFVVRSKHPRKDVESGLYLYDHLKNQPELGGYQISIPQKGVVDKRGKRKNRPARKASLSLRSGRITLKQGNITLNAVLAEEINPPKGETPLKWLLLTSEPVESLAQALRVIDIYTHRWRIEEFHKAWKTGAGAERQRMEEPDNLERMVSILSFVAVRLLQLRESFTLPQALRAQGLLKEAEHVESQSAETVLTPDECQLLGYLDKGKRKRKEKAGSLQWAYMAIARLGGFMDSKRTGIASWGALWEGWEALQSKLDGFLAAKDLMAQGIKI

B1: control ChIL probe (original) (dsDNA)
DNA 1: CCCATGCATTAATACGACTCACTATAGGGTAGATCGCTCGTCGGCAGCGTCAGATGTGTATAAGAGACAG
DNA 2: CTGTCTCTTATACACATCTGACGCTGCCGACGAGCGATCTACCCTATAGTGAGTCGTATTAATGCATGGG
modifications: 5'-azide on SEQ 1 (click-linked to DBCO-PEG5 anti-mouse IgG); 5'-phosphate on SEQ 2
binding result (Tn5 transposase): binds
binding result (T7 RNA polymerase): binds
